In publication doi:10.1101/726224 (bioRxiv, 2019):

Biological target: Cyclin B1^165-433 (isolated) (UniProt P14635 165-433)
Assay: SEC

Cyclin B1^165-433 (isolated), sequence (P14635 165-433): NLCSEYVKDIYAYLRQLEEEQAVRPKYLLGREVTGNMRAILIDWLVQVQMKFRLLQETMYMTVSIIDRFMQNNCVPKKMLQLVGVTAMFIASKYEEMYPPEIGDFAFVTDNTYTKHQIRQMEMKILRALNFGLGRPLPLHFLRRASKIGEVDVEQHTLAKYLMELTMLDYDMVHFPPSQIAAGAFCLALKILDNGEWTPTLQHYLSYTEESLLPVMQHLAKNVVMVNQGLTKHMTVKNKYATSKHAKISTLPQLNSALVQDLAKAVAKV

B1: MBP-MAD1^41-62 (domain or fragment)
chain: LQMQYQQSMQLEERAEQIRSKS
**Q.** Does B1 bind?
**A.** binds
